Laboratory results taken from patent US20250361274A1, “PEPTIDE AND PEPTIDE-CONTAINING AGENT” (PEPTIDREAM INC., priority 2022, published 2025).
Where two headings read alike, the source gives them in different places. Numbered stars: 1 amine (or outer) side, 2 acyl side, 3 side chain; on linkers, the order of the positions; unused ones are H or OH. Bridge positions count the residues as written; N and C are the ends. Square brackets hold non-standard residues; d marks the D form. Ends that are not written are not given here. KCOpipzaa = N6-(4-(carboxymethyl)piperazine-1-carbonyl)-L-lysine, O=C(NCCCC[C@H](N[*:1])C(=O)[*:2])N1CCN(CC(=O)[*:3])CC1; 3Pal(6-Ph) = N[C@@H](Cc1ccc(-c2ccccc2)nc1)C(=O)O; Phe(4-COOH) = N[C@@H](Cc1ccc(C(=O)O)cc1)C(=O)O; Bip = N[C@@H](Cc1ccc(-c2ccccc2)cc1)C(=O)O; Ala(4-THP) = N[C@@H](CC1CCOCC1)C(=O)O; Hyp = O=C(O)[C@@H]1C[C@@H](O)CN1; βAla = NCCC(=O)O

How the values were obtained:
[1] = target: T1, BMP4 (Homo sapiens, UniProt P12644); experiment: Intermolecular interaction by surface plasmon resonance (SPR), immobilized BMP4; type: binding; details: which BMP is not specified
T1 sequence (P12644 293-408): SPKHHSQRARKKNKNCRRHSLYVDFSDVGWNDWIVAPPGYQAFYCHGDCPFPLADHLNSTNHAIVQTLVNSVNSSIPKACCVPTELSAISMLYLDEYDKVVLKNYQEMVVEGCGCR
Experimental: The test of the intermolecular interaction by the surface plasmon resonance (SPR) of each of the peptides synthesized in Examples 2 and 3 against BMP4/BMP7 was performed by the following manner. The test method is specifically shown as follows.
A CM5 sensor chip (Cytiva) was inserted into a BiacoreT200 (Cytiva). Three priming runs were performed using running buffer: HBS-EP+ (Cytiva). The system was then equilibrated at a flow rate of 30 μL/min. Subsequently, 50 μL of 60 mM EDC solution (Cytiva) and 50 μL of 650 mM NHS solution (Cytiva) were mixed and were allowed to react at a flow rate of 10 μL/min for 420 seconds. The resultant was diluted with a 10 mM acetic acid solution (pH 5.0), to prepare 150 μL of 0.2 μM BMP4/BMP7 solution. The solution was allowed to react at a flow rate of 10 μL/min for 420 seconds, and the BMP4/BMP7 was immobilized in a CM5 sensor chip. After immobilization, capping was performed by reacting with 1.0 M ethanolamine aqueous solution (Cytiva) at a flow rate of 10 μL/min for 420 seconds. […]
(§1) The kinetics evaluation model was Single Cycle Kinetics, and curve fitting was performed using Biacore T200 Evaluation Software Version 3.0 (Cytiva). The binding of peptides to BMP4/BMP7 was evaluated by performing least-squares curve fitting on the obtained sensorgram to calculate the KD value.

[2] = target: T2, BMP4 (UniProt P12644 293-408); experiment: cell-based or functional assay
T2 sequence (looked up): T1 sequence (P12644 293-408)

[3] = target: T3, BMP7 (UniProt P18075 293-431); experiment: cell-based or functional assay
T3 sequence (looked up): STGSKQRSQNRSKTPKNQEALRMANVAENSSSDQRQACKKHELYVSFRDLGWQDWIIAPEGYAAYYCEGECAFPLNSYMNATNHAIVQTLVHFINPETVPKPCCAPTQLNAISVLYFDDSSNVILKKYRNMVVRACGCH

[4] = target: T2, BMP4; experiment: cell-based or functional assay; remark: listed apart in the source
[5] = target: T3, BMP7; experiment: cell-based or functional assay; remark: listed apart in the source
[6] = target: T2, BMP4; experiment: SPR (Biacore T200), BMP4 amine-coupled on CM5 chip, peptide as analyte, single cycle kinetics
Experimental: (§2) A CM5 sensor chip (Cytiva) was inserted into a BiacoreT200 (Cytiva). Three priming runs were performed using running buffer: HBS-EP+ (Cytiva). The system was then equilibrated at a flow rate of 30 μL/min. Subsequently, 50 μL of 60 mM EDC solution (Cytiva) and 50 μL of 650 mM NHS solution (Cytiva) were mixed and were allowed to react at a flow rate of 10 μL/min for 420 seconds. The resultant was diluted with a 10 mM acetic acid solution (pH 5.0), to prepare 150 μL of 0.2 μM BMP4/BMP7 solution. The solution was allowed to react at a flow rate of 10 μL/min for 420 seconds, and the BMP4/BMP7 was immobilized in a CM5 sensor chip. After immobilization, capping was performed by reacting with 1.0 M ethanolamine aqueous solution (Cytiva) at a flow rate of 10 μL/min for 420 seconds. A liquid prepared by dissolving each peptide at 10 mM in a DMSO solution was diluted with a running buffer so that the final concentration of the peptide-dissolved liquid would be 10 μM. Then, the peptide solutions (100 nM, 50 nM, 25 nM, 10 nM, and 5 nM) were prepared. […]
as §1

[7] = target: T3, BMP7; experiment: SPR (Biacore T200), BMP7 amine-coupled on CM5 chip, peptide as analyte, single cycle kinetics
Experimental: as §2, §1

[8] = target: T2, BMP4; experiment: cell-based or functional assay; remark: listed apart in the source
[9] = target: T3, BMP7; experiment: cell-based or functional assay; remark: listed apart in the source
[10] = target: BMP2 (UniProt P12643 283-396); experiment: cell-based or functional assay
Sequence of BMP2 (P12643 283-396 limits assumed): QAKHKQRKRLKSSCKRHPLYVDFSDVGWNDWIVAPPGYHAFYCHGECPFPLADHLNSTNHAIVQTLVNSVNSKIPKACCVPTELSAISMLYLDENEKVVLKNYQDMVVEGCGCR

[11] = target: T2, BMP4; experiment: cell-based or functional assay; remark: listed apart in the source
[12] = target: T3, BMP7; experiment: cell-based or functional assay; remark: listed apart in the source
[13] = target: T3, BMP7; experiment: cell-based or functional assay; remark: listed apart in the source
[14] = target: T4, BMP5 (UniProt P22003 317-454, limits assumed); experiment: cell-based or functional assay
T4 sequence (looked up): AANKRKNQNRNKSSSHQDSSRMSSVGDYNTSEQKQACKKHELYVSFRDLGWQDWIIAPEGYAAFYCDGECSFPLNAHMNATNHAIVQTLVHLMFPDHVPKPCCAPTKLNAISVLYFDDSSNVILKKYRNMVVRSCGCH

[15] = target: T5, BMP6 (UniProt P22004 382-513, limits assumed); experiment: cell-based or functional assay
T5 sequence (looked up): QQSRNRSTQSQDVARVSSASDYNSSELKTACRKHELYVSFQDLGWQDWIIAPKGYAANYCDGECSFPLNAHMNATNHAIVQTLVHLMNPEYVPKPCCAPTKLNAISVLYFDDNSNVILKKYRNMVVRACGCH

## E-R-V-F4COO-Atp-D-R-Bph-P-Y-P-Bph-Y-F4COO-F4COO-S-C (ERV[Phe(4-COOH)][Ala(4-THP)]DR[Bip]PYP[Bip]Y[Phe(4-COOH)][Phe(4-COOH)]SC) [SEQ ID NO: 1]
[1]
  BMP binding activity (in words): confirmed to have BMP binding activity

## recombinant Human Noggin Protein (R&D) (from UniProt Q13253 28-232)
[2]
  IC50 (nM), SMAD1 phosphorylation in A549 cells: 0.08 nM
[3]
  IC50 (nM), SMAD1 phosphorylation in A549 cells: 2.7 nM
[4]
  IC50 (nM), SMAD1 phosphorylation in A549 cells: 0.13 nM
[5]
  IC50 (nM), SMAD1 phosphorylation in A549 cells: 5.74 nM

B1: BMP4 signal transduction inhibition peptide No. 84 (SEQ ID NO: 84) (peptide)
peptide: {CH2CO}-ERVYVDR[Bip]PYV[Bip]Y[Phe(4-COOH)][Phe(4-COOH)]SC[βAla][dE]-OH
modifications: thioether N-17
SMILES: CC(C)[C@@H]1NC(=O)[C@H](Cc2ccc(O)cc2)NC(=O)[C@H](C(C)C)NC(=O)[C@H](CCCNC(=N)N)NC(=O)[C@H](CCC(=O)O)NC(=O)CSC[C@@H](C(=O)NCCC(=O)N[C@H](CCC(=O)O)C(=O)O)NC(=O)[C@H](CO)NC(=O)[C@H](Cc2ccc(C(=O)O)cc2)NC(=O)[C@H](Cc2ccc(C(=O)O)cc2)NC(=O)[C@H](Cc2ccc(O)cc2)NC(=O)[C@H](Cc2ccc(-c3ccccc3)cc2)NC(=O)[C@H](C(C)C)NC(=O)[C@H](Cc2ccc(O)cc2)NC(=O)[C@@H]2CCCN2C(=O)[C@H](Cc2ccc(-c3ccccc3)cc2)NC(=O)[C@H](CCCNC(=N)N)NC(=O)[C@H](CC(=O)O)NC1=O
notes: thioether ring between N-terminal chloroacetyl and Cys17
[6]
  Kd: 2.1 nM
[7]
  Kd: 21.7 nM

## {CH2CO}-ERV[Phe(4-COOH)]V[KCOpipzaa]R[3Pal(6-Ph)][KCOpipzaa]Y[Hyp][Bip]Y[Phe(4-COOH)][Phe(4-COOH)]SCG-NH2 (thioether N-17 (inferred)) [BMP4 signal transduction inhibition peptide SEQ ID NO: 277 (Example 8)]
[8]
  IC50 (nM), SMAD1 phosphorylation in A549 cells: 0.073 nM
[9]
  IC50 (nM), SMAD1 phosphorylation in A549 cells: 455 nM
[10]
  IC50, SMAD1 phosphorylation, BMP2 0.3 nM: 0.45 nM

B2: BMP4 signal transduction inhibition peptide No. 177 (SEQ ID NO: 177) (peptide)
peptide: {CH2CO}-ERV[Phe(4-COOH)][Ala(4-THP)]DR[Bip]PYP[Bip]Y[Phe(4-COOH)][Phe(4-COOH)]SC[βAla][dE]-OH
modifications: thioether N-17
SMILES: CC(C)[C@@H]1NC(=O)[C@H](CCCNC(=N)N)NC(=O)[C@H](CCC(=O)O)NC(=O)CSC[C@@H](C(=O)NCCC(=O)N[C@H](CCC(=O)O)C(=O)O)NC(=O)[C@H](CO)NC(=O)[C@H](Cc2ccc(C(=O)O)cc2)NC(=O)[C@H](Cc2ccc(C(=O)O)cc2)NC(=O)[C@H](Cc2ccc(O)cc2)NC(=O)[C@H](Cc2ccc(-c3ccccc3)cc2)NC(=O)[C@@H]2CCCN2C(=O)[C@H](Cc2ccc(O)cc2)NC(=O)[C@@H]2CCCN2C(=O)[C@H](Cc2ccc(-c3ccccc3)cc2)NC(=O)[C@H](CCCNC(=N)N)NC(=O)[C@H](CC(=O)O)NC(=O)[C@H](CC2CCOCC2)NC(=O)[C@H](Cc2ccc(C(=O)O)cc2)NC1=O
notes: as for B1
[11]
  IC50 (nM), SMAD1 phosphorylation in A549 cells: 0.053 nM
[12]
  IC50 (nM), SMAD1 phosphorylation in A549 cells: 1.4 nM
[13]
  IC50, SMAD1 phosphorylation, BMP7 10 nM: 1.43 nM
[10]
  IC50, SMAD1 phosphorylation, BMP2 0.3 nM: 0.21 nM
[14]
  IC50, SMAD1 phosphorylation, BMP5 2 nM: 9.17 nM
[15]
  IC50, SMAD1 phosphorylation, BMP6 3 nM: 3.9 nM
[6]
  Kd: 0.4 nM
[7]
  Kd: 2.3 nM
